The text below walks through data of US20250121104A1 (FUSION PHARMACEUTICALS, published 2025).

One assay has as its target T1, Semaphorin 3a (UniProt Q14563 21-771, limits assumed).
T1 sequence (looked up): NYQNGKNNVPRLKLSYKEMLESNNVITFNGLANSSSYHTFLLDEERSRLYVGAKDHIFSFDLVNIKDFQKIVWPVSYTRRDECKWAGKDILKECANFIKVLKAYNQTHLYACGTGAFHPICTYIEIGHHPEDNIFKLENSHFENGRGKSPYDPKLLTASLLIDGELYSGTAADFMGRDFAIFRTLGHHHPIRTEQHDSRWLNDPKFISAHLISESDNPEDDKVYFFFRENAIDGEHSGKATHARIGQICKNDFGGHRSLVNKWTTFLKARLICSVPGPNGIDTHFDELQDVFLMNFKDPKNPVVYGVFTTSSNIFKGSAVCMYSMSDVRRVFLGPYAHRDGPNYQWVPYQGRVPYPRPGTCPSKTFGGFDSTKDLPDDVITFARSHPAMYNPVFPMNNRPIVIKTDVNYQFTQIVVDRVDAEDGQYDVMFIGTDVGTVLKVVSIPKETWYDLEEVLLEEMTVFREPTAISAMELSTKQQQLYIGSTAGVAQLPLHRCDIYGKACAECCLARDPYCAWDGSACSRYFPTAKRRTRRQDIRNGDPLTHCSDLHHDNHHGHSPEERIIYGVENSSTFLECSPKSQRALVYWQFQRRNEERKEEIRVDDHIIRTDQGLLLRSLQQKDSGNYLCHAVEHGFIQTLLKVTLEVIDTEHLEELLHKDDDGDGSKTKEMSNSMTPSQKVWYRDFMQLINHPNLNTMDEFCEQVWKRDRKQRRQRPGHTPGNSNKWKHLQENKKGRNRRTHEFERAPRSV
Nature of the assay: ELISA, antigen coated at 1 µg/mL, antibody titrated from 10 µg/mL. A general note: In an ELISA, binding on a coated surface is turned into a signal by an enzyme label.

A further assay deals with T2, Ron (CD136) (UniProt Q04912 25-957, limits assumed).
T2 sequence (looked up): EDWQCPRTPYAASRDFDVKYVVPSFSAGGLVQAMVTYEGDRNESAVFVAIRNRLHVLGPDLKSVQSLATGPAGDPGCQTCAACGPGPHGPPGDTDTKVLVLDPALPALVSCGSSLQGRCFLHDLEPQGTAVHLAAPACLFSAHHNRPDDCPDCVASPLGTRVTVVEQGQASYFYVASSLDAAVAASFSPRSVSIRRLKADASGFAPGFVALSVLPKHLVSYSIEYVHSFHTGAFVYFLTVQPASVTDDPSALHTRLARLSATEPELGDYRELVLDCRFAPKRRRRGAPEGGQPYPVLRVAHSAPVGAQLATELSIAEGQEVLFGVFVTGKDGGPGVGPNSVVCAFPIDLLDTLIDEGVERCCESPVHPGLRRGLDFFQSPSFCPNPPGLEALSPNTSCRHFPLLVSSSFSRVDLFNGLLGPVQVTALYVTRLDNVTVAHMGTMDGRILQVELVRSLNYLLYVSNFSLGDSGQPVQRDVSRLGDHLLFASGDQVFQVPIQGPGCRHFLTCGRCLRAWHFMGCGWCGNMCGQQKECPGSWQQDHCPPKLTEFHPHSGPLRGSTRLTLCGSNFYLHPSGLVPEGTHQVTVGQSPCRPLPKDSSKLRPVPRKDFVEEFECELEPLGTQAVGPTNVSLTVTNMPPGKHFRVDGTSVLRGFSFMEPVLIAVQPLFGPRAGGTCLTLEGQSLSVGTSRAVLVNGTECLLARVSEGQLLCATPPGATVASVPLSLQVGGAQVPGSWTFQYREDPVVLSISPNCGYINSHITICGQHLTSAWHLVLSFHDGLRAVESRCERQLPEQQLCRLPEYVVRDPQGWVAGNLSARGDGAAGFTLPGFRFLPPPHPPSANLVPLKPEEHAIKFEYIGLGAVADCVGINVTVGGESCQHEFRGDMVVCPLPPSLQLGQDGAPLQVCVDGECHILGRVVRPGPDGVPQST
The assay is described as above.

B1: RAA22/B09-57 DuetMab (bispecific antibody, V domains shown)
VH 1: QVQLVQSGAEVKKPGSSVKVSCKASGGTFSDNDFSWVRQAPGQGLEWMGAIVAVFRTETYAQKFQDRVKITADISTRTTYMELSSLRSEDTAVYYCARRLMSAISGPGAPLLMWGQGTLVTVSS
VL 1: QSALTQPRSVSGSPGQSVTISCTGTSSDVGGYNYVSWYQQHPGKAPKLMIYDVSKRPSGVPDRFSGSKSGNTASLTISGLQAEDEADYYCSSYTSSDTLEIFGGGTKLTVL
VH 2: QVQLVQSGAEVKKPGASVKVSCKASGYTFTDYYIHWVRQATGQGLEWMGWMNPNSGNTGYAQKFQGRVTMTRDTSISTAYMELSSLRSEDTAVYYCARGQGYTHSWGQGTMVTVSS
VL 2: DIQMTQSPSTLSASVGDRVTITCRASEGIYHWLAWYQQKPGKAPKLLIYKASSLASGVPSRFSGSGSGTEFTLTISSLQPDDFATYYCQQYSNYPPTFGGGTKLEIK
notes: RAA22 VH on Hole heavy chain (T366S, L368A, Y407V, Y349C) with lambda CL; cysteine insertion after S239; also called RAA22/B09 DuetMab; RAA22/B09 bispecific mAb
Take B1: the binding result with Semaphorin 3a and in the assay with Ron (CD136) was “no binding (tested: 10 µg/mL)” in each case.
